From patent US20150098945A1 (Daiichi Sankyo, published 2015) come the findings set out here.

In assay [1] the target is T1, N-terminal FLAG-tagged human ROBO4 extracellular region/domain deletion variant hROBO4-132 (human, UniProt Q8WZ75 132-1007).
T1 construct: On transfected HEK293 cells; also called pCI-FLAG-hROBO4-132; pCI-hROBO4-132
T1 sequence: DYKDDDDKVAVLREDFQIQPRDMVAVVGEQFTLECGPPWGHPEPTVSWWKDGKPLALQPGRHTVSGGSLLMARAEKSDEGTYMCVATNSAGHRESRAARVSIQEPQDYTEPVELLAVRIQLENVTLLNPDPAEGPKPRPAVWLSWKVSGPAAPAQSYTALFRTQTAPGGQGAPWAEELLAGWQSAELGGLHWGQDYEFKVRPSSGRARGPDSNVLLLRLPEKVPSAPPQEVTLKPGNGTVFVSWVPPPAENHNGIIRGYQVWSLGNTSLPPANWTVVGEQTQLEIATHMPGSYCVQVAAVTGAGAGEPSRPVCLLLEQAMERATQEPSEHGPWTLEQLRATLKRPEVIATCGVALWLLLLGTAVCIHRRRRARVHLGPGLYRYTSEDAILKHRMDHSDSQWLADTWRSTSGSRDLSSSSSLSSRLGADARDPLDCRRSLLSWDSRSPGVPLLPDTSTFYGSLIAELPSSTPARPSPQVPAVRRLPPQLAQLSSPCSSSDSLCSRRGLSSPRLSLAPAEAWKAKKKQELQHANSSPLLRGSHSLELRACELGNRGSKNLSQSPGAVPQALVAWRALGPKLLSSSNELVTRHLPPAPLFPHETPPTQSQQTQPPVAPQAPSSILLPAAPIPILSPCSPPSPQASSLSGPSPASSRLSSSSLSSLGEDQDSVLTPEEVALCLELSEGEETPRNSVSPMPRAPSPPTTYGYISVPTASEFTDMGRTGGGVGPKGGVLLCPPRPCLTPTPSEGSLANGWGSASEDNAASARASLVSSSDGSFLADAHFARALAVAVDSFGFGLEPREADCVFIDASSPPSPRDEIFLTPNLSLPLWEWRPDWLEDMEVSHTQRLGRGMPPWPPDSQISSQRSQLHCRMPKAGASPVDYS
The assay is described as follows: flow cytometry, HEK293 cells transfected with pCI-FLAG-hROBO4-132, antibody at 10 µg/mL, anti-mouse IgG FITC; control histogram IgG (Mouse IgG2a). The procedure: HEK293 cells were inoculated at a concentration of 1.5×10⁶ cells/dish to a 60-mm dish (manufactured by Corning Inc.) and cultured overnight in a DMEM medium containing 10% FBS at 37° C. under 5% CO₂ conditions. […] On the next day, the expression vector-transfected cells were treated with TrypLE Express (manufactured by Life Technologies Corp.), washed with PBS containing 5% FBS, and then suspended in PBS containing 5% FBS. The obtained cell suspension was used in flow cytometry analysis.
Each cell suspension prepared in 4)-5-1 was centrifuged, and the supernatant was removed. Then, MAb1, a positive control Monoclonal ANTI-FLAG M2 antibody produced in mouse, or a negative control Mouse IgG2a was added at a concentration of 10 μg/mL to 2×10⁵ expression vector-transfected cells, and the resulting suspension was left standing at 4° C. for 1 hour. The cells were washed once with PBS containing 5% FBS. Then, Anti-Mouse IgG FITC conjugate diluted 1000-fold with PBS containing 5% FBS was added thereto, and the resulting suspension was left standing at 4° C. for 1 hour. […] Data was analyzed using Flowjo. The histogram of FITC fluorescence intensity was prepared. The antibody was determined to bind to a cell when the histogram of MAb1 was shifted to a stronger fluorescence intensity region compared with the histogram of the negative control Mouse IgG2a. […]
For orientation: Flow cytometry measures light scatter and fluorescence of single cells or particles in a stream.

The target in assay [2] is N-terminal FLAG-tagged human ROBO1 (pCI-FLAG-hROBO1-transfected HEK293 cells) (human, UniProt Q9Y6N7 58-1651). Briefly: flow cytometry, HEK293 cells transfected with pCI-FLAG-hROBO1, anti-mouse IgG FITC; control histogram IgG. The procedure:
HEK293 cells were inoculated at a concentration of 1.2×10⁶ cells/dish or 1.5×10⁶ cells/dish to a 60-mm dish (manufactured by Corning Inc.) and cultured overnight in a DMEM medium containing 10% FBS at 37° C. under 5% CO₂ conditions. On the next day, the HEK293 cells were transfected with pCI-hROBO4, pCI-FLAG-hROBO1, pCI-hROBO2, or pCI-hROBO3 using FuGENE6 Transfection Reagent and further cultured overnight at 37° C. under 5% CO₂ conditions. On the next day, the expression vector-transfected cells were treated with TrypLE Express (manufactured by Life Technologies Corp.), washed with PBS containing 5% FBS, and then suspended in PBS containing 5% FBS. The obtained cell suspension was used in flow cytometry analysis.
Each cell suspension prepared in 4)-4-1 was centrifuged, and the supernatant was removed. […] Data was analyzed using Flowjo. The histogram of FITC fluorescence intensity was prepared. The antibody was determined to bind in a specific manner when the histogram of MAb1 was shifted to a stronger fluorescence intensity region compared with the histogram of the negative control Mouse IgG1 or Mouse IgG2a. […]

N-terminal FLAG-tagged human ROBO1 (pCI-FLAG-hROBO1-transfected HEK293 cells), sequence (Q9Y6N7 other isoform, or with tags, fused parts or gaps): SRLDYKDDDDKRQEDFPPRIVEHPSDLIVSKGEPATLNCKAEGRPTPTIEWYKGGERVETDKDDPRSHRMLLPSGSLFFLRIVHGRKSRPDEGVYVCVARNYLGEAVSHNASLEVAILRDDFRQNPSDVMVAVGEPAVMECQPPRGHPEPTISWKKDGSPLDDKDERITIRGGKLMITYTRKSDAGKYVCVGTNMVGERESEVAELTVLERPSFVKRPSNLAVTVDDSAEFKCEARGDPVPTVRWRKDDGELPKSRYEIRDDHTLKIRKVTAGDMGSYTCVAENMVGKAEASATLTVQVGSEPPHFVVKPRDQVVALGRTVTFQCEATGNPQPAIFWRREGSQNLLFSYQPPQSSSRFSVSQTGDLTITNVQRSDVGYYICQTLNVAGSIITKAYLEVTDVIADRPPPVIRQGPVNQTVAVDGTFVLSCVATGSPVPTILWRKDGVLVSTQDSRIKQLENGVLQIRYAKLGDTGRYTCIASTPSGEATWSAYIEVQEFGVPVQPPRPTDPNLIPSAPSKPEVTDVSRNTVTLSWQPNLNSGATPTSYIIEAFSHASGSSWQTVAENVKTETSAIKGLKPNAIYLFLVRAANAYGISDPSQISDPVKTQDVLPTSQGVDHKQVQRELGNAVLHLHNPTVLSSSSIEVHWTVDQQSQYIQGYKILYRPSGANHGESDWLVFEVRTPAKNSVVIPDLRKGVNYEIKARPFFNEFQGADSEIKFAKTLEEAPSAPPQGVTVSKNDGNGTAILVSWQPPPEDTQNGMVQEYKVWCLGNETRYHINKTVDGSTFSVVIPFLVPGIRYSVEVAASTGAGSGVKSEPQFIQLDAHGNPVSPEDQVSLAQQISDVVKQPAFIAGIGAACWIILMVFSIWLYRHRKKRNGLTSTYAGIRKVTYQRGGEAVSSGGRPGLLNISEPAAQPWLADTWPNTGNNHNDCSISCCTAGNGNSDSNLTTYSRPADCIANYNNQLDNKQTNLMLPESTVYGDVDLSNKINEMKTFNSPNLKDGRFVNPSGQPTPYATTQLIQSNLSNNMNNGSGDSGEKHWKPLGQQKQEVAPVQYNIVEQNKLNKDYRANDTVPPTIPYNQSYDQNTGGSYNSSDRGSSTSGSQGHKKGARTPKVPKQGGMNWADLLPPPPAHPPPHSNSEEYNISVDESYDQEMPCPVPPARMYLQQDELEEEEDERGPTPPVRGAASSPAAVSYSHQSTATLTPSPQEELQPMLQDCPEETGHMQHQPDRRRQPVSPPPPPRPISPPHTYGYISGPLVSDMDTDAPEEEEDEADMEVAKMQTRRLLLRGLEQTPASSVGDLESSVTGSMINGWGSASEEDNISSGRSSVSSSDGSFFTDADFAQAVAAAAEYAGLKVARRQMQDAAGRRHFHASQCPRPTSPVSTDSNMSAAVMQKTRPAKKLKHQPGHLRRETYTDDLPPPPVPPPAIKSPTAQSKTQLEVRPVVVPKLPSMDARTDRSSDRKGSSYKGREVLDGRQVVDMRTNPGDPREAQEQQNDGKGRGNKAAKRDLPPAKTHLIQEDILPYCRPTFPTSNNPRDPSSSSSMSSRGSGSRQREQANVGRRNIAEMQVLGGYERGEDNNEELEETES

B1: anti-ROBO4 mouse monoclonal antibody MAb1 (antibody, mouse IgG1, V domains shown)
VH: EVQLVESGGGLVKPGGSLKLSCAASGFTFSTYAMSWVRQTPEKRLEWVATISNGGTYTYYPDSVKGRFTISRDNAENTLYLQMSSLRSEDTAMYFCARLIYYDYLDYWGHGTTLTVSS
VL: DAVMTQTPLSLPVSLGDQASISCRSSQSLENSNGNTYLNWYFQKPGQSPQLLIYRVSNRFSGVLDRFSGSGSGTDFTLKISRVEAEDFGVYFCLQVTHVPWTFGGGTKLEIKR
notes: Mouse IgG1 (gamma1), kappa light chain, purified from hybridoma supernatant; also called parent antibody MAb1
Regarding B1, the figures for the binding result in assay [1] and in assay [2] were “binds” and “no binding (tested: 10 µg/mL)”, respectively.
